The values below come from PMC2710387.

The chains are these.
B1: Sp1 (-346) unmethylated (Sp1-1) (dsDNA)
DNA 1: TCCACCCTCCGCCCCGCGCCGTCC
DNA 2: GGACGGCGCGGGGCGGAGGGTGGA
B2: Sp1 (-268) unmethylated (Sp1-2) (dsDNA)
DNA 1: TTCTCGTCCCCGCCCCGTCCCGCC
DNA 2: GGCGGGACGGGGCGGGGACGAGAA
B3: Sp1 (-268) methylated (Sp1-2 M) (dsDNA)
DNA 1: TTCTCGTCCCCGCCCCGTCCCGCC
DNA 2: GGCGGGACGGGGCGGGGACGAGAA
modifications: 5-methylcytosine (printed mC): strand 1 C5,C11,C16,C21,C24; strand 2 C3,C8,C13,C19
B4: Sp1 (-346) methylated (Sp1-1 M) (dsDNA)
DNA 1: TCCACCCTCCGCCCCGCGCCGTCC
DNA 2: GGACGGCGCGGGGCGGAGGGTGGA
modifications: 5-methylcytosine (printed mC): strand 1 C10,C15,C17,C20,C24; strand 2 C4,C7,C9,C14

Sequence of SP1 (recombinant, purified, Promega) (P08047 2-785): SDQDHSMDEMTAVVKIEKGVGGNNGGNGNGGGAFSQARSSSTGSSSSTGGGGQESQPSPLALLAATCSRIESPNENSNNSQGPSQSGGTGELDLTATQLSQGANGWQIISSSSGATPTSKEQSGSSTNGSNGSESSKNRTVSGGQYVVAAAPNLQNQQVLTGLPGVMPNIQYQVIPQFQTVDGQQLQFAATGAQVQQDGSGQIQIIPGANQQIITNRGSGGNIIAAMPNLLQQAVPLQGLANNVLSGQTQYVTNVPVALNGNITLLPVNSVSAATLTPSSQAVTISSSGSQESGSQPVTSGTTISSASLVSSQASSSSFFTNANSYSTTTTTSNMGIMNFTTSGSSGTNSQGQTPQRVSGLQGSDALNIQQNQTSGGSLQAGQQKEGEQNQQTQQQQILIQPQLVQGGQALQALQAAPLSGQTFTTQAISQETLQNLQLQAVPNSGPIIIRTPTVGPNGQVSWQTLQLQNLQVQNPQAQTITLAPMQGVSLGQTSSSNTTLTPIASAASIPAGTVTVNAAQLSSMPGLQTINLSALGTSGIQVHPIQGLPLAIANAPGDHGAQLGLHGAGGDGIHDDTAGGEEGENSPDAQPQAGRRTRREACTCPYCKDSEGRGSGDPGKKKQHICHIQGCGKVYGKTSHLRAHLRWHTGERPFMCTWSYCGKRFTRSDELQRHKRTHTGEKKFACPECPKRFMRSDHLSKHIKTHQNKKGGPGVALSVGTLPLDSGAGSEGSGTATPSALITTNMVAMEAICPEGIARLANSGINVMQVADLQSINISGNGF

The series addresses SP1 (recombinant, purified, Promega) (UniProt P08047 2-785). Nature of the series: EMSA.
In the case of B1, the binding result is reported as “binds”. To B2 belongs “binds”; to B3, “no binding”; to B4, “no binding”.
